In article PMC9204161:

Molecular target: biotin-ahx-ahx-EPQpYEEIPIYL (biotinylated pTyr peptide derived from the protein MidT)
Assay: BLI; Octet RED96 (ForteBio); biotinylated peptides immobilised on a streptavidin biosensor; SH2 variants at 300, 150 and 0 nM

SH2-WT (wild-type Fyn SH2 domain), 6xHis-tagged protein (from UniProt P06241 149-246) (domain or fragment)
Kd: 267 nM
